Source: patent publication US20090166224A1

Tests used:
… ZONE PROTEIN (human) = … ZONE PROTEIN (human) (UniProt P20742); experiment: human serum on M-LAC column, displacer fraction, extracted ion chromatogram of peptide … (so in the source)
[1] = target: ALPHA-2-HS-GLYCOPROTEIN (human) (UniProt P02765); experiment: untreated sample on M-LAC column, displacer fraction, peak area of peptide …
SERO… (human) [2] = target: SERO… (human) (UniProt P02787); experiment: as above
[3] = target: Beta-2-glycoprotein (human) (UniProt P02749); experiment: as above
HAPTOGLOBIN-2 (human) [4] = target: HAPTOGLOBIN-2 (human) (UniProt P00738); experiment: as above
[5] = target: Alpha-1-acid-glycoprotein (human) (UniProt P02763); experiment: as above
HAPTOGLOBIN-2 (human) [6] = target: HAPTOGLOBIN-2 (human) (UniProt P00738); experiment: human serum on Con A/WGA/Jacalin column, lectin-specific displacer fraction, LC-MS/MS; grade = SEQUEST rank group (+ = ranks 1-5, ++++ = 16-20)
[7] = target: APOLIPOPROTEIN A-I (human) (UniProt P02647); experiment: human serum on M-LAC column, displacer fraction, extracted ion chromatogram of peptide …
[8] = target: Alpha-2HS-glycoprotein in neuraminidase-treated serum (human) (UniProt P02765); experiment: neuraminidase-treated serum on M-LAC column, displacer fraction, extracted ion chromatogram of peptide …
[9] = target: Beta-2-glycoprotein in neuraminidase-treated serum (human) (UniProt P02749); experiment: as above
[10] = target: Haptoglobin in neuraminidase-treated serum (human) (UniProt P00738); experiment: as above
[11] = target: Alpha-1-acid-glycoprotein in neuraminidase-treated serum (human) (UniProt P02763); experiment: as above
[12] = target: ALPHA-2-HS-GLYCOPROTEIN (human) (UniProt P02765); experiment: human serum on M-LAC column, displacer fraction, extracted ion chromatogram of peptide …
SERO… (human) [13] = target: SERO… (human) (UniProt P02787); experiment: as above
[14] = target: Beta-2-glycoprotein (human) (UniProt P02749); experiment: as above
HAPTOGLOBIN-2 (human) [15] = target: HAPTOGLOBIN-2 (human) (UniProt P00738); experiment: as above
[16] = target: Alpha-1-acid-glycoprotein (human) (UniProt P02763); experiment: as above
[17] = target: Haptoglobin in neuraminidase-treated serum (human) (UniProt P00738); experiment: neuraminidase-treated serum on M-LAC column, displacer fraction, LC-MS/MS; smaller rank = more abundant
[18] = target: Alpha-1-acid-glycoprotein in neuraminidase-treated serum (human) (UniProt P02763); experiment: as above
[19] = target: Alpha-1-acid-glycoprotein in fucosidase-treated serum (human) (UniProt P02763); experiment: fucosidase-treated serum on M-LAC column, displacer fraction, extracted ion chromatogram of peptide …
[20] = target: Haptoglobin in fucosidase-treated serum (human) (UniProt P00738); experiment: as above
[21] = target: Apolipoprotein A-I in fucosidase-treated serum (human) (UniProt P02647); experiment: as above
[22] = target: Ceruloplasmin in fucosidase-treated serum (human) (UniProt P00450); experiment: as above
[23] = target: Alpha-1-acid-glycoprotein in fucosidase-treated serum (human) (UniProt P02763); experiment: fucosidase-treated serum on M-LAC column, displacer fraction, LC-MS/MS; smaller rank = more abundant
[24] = target: Haptoglobin in fucosidase-treated serum (human) (UniProt P00738); experiment: as above
[25] = target: Apolipoprotein A-I in fucosidase-treated serum (human) (UniProt P02647); experiment: as above
[26] = target: Ceruloplasmin in fucosidase-treated serum (human) (UniProt P00450); experiment: as above
[27] = target: APOLIPOPROTEIN A-I (human) (UniProt P02647); experiment: human serum on M-LAC column, displacer fraction, LC-MS/MS; smaller rank = more abundant
CERULOPLASMIN (human) = CERULOPLASMIN (human) (UniProt P00450); experiment: as above
[28] = target: ALPHA-2-HS-GLYCOPROTEIN (human) (UniProt P02765); experiment: as above
SERO… (human) [29] = target: SERO… (human) (UniProt P02787); experiment: as above
[30] = target: Beta-2-glycoprotein (human) (UniProt P02749); experiment: as above
HAPTOGLOBIN-2 (human) [31] = target: HAPTOGLOBIN-2 (human) (UniProt P00738); experiment: as above
[32] = target: Alpha-1-acid-glycoprotein (human) (UniProt P02763); experiment: as above

Chain of Beta-2-glycoprotein in neuraminidase-treated serum (human) (P02749 20-345 limits assumed): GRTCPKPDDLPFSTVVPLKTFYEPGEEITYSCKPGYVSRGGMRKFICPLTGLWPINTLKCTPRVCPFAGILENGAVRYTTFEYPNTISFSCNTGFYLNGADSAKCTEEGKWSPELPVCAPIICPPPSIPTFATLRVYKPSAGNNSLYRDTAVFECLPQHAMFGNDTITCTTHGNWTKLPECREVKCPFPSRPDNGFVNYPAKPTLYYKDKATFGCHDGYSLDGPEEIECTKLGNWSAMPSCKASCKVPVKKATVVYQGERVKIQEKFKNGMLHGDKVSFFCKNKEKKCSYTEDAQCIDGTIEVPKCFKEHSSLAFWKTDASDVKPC
Chain of Beta-2-glycoprotein (human) (P02749 20-345 limits assumed): as above
Chain of Alpha-1-acid-glycoprotein (human) (P02763 19-201 limits assumed): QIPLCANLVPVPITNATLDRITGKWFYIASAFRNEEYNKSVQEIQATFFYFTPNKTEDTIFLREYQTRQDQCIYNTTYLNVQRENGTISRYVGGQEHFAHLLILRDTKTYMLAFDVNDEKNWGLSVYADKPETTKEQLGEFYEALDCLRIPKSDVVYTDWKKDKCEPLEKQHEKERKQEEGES
Chain of Alpha-1-acid-glycoprotein in neuraminidase-treated serum (human) (P02763 19-201 limits assumed): as above
Chain of Alpha-1-acid-glycoprotein in fucosidase-treated serum (human) (P02763 19-201 limits assumed): as above
Chain of Apolipoprotein A-I in fucosidase-treated serum (human) (P02647 25-267 limits assumed): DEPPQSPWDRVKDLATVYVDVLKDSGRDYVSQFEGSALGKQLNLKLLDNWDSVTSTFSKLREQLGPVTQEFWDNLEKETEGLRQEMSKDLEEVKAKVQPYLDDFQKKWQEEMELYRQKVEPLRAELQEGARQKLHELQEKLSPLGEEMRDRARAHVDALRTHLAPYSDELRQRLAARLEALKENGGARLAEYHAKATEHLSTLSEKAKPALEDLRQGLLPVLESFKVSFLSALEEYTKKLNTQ
Chain of UniProt P02647 (P02647 25-267 limits assumed): as above
Chain of … ZONE PROTEIN (human) (P20742 26-1482 limits assumed): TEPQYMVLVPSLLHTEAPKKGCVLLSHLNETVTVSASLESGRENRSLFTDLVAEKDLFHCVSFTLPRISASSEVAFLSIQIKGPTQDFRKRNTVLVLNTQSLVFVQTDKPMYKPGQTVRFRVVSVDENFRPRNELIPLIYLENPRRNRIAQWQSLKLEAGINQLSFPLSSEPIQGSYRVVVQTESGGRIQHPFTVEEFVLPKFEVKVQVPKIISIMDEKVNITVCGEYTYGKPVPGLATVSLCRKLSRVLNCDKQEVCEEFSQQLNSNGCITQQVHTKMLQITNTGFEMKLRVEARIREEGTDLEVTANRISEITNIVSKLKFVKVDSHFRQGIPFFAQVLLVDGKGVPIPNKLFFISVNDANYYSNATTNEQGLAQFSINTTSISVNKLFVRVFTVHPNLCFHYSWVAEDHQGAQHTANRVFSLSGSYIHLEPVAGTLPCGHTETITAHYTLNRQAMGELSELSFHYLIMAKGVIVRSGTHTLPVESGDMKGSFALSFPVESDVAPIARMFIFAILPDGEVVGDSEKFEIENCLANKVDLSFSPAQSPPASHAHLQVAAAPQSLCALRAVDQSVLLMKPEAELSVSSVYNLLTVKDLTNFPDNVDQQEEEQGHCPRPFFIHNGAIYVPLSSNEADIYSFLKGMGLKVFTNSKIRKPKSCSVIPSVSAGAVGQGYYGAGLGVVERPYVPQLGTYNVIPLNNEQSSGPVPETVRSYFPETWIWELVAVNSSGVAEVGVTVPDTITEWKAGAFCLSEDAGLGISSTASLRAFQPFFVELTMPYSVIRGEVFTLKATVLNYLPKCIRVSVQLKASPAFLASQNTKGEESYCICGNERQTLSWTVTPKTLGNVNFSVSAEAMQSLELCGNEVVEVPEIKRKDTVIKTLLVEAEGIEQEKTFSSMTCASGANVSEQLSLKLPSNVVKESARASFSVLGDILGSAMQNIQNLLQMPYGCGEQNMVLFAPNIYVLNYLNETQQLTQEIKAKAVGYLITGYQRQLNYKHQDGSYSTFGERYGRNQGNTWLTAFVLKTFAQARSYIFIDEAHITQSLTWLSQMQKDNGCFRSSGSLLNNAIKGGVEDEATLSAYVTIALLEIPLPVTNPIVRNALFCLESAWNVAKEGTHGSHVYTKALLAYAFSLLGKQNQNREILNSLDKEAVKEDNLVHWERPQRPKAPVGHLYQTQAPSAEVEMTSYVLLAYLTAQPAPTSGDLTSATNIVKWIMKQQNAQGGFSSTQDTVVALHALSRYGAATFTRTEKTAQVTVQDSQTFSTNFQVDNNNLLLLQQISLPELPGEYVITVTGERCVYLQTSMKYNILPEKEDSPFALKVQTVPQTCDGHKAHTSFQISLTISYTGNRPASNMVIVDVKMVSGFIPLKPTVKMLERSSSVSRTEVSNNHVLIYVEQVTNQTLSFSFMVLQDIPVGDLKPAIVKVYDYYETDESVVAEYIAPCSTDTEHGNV
Chain of HAPTOGLOBIN-2 (human) (P00738 19-406 limits assumed): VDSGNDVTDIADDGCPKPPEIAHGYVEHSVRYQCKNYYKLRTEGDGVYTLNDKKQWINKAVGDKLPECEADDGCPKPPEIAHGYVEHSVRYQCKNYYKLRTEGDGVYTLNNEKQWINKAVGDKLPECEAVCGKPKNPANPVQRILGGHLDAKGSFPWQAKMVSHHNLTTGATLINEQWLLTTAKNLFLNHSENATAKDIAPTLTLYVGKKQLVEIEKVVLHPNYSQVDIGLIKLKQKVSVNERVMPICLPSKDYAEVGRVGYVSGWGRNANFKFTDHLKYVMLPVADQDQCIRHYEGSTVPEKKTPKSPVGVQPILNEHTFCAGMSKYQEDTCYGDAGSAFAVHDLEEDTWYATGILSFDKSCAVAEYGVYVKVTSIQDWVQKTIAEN
Chain of Haptoglobin in neuraminidase-treated serum (human) (P00738 19-406 limits assumed): as above
Chain of Haptoglobin in fucosidase-treated serum (human) (P00738 19-406 limits assumed): as above
Chain of UniProt P02765 (P02765 19-300 limits assumed, chain 1 of 2): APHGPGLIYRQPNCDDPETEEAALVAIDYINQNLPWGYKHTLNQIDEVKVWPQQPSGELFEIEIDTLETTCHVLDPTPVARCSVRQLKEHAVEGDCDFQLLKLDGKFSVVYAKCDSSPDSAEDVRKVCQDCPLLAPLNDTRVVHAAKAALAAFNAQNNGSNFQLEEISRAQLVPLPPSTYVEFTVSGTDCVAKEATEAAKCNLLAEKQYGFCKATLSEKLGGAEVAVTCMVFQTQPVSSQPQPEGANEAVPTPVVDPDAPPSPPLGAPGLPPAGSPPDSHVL
Chain of UniProt P02765 (P02765 341-367 limits assumed, chain 2 of 2): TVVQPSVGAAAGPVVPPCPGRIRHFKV

Row | peptide peak area in displacer fraction (… ZONE PROTEIN (human)) [counts] | peptide peak area in displacer fraction [1] | peptide peak area in displacer fraction (SERO… (human) [2]) | peptide peak area in displacer fraction [3] | peptide peak area in displacer fraction (HAPTOGLOBIN-2 (human) [4]) | peptide peak area in displacer fraction [5] | peptide peak area in displacer fraction [7] [counts] | peptide peak area in displacer fraction [8] [counts] | peptide peak area in displacer fraction [9] [counts] | peptide peak area in displacer fraction [10] [counts] | peptide peak area in displacer fraction [11] [counts] | peptide peak area in displacer fraction [12] [counts] | peptide peak area in displacer fraction (SERO… (human) [13]; peptide at M/Z 530.2) [counts] | peptide peak area in displacer fraction (SERO… (human) [13]; peptide at M/Z 790.1) [counts] | peptide peak area in displacer fraction [14] [counts] | peptide peak area in displacer fraction (HAPTOGLOBIN-2 (human) [15]) [counts] | peptide peak area in displacer fraction [16] [counts] | SEQUEST rank in displacer fraction [17] | SEQUEST rank in displacer fraction [18] | peptide peak area in displacer fraction [19] [counts] | Substance | other results
1 | 0 | 4 | 20 | 2.6 | 10.1 | 9.7 | 4e+07 | 7.4e+06 | 3.8e+06 | 1.3e+07 | 1.2e+07 | 4e+06 | 1.9e+07 | 7e+06 | 2.6e+06 | 1e+07 | 9.7e+06 | 9 | 27 | 1.7e+07 | Jacalin lectin, agarose-bound (from UniProt P18670 1-133; P18671 1-20) | SEQUEST ranking (relative abundance in the Jacalin displacement fraction) (HAPTOGLOBIN-2 (human) [6]): 11 to 15 rank; peptide peak area in displacer fraction [20]: 2.2e+07 counts; peptide peak area in displacer fraction [21]: 4.3e+07 counts; peptide peak area in displacer fraction [22]: 6.2e+06 counts; SEQUEST rank in displacer fraction [23]: 19; SEQUEST rank in displacer fraction [24]: 7; SEQUEST rank in displacer fraction [25]: 5; SEQUEST rank in displacer fraction [26]: 6; SEQUEST rank in displacer fraction [27]: 4; SEQUEST rank in displacer fraction (CERULOPLASMIN (human)): 24; SEQUEST rank in displacer fraction [28]: 14; SEQUEST rank in displacer fraction (SERO… (human) [29]): 2; SEQUEST rank in displacer fraction [30]: 20; SEQUEST rank in displacer fraction (HAPTOGLOBIN-2 (human) [31]): 9; SEQUEST rank in displacer fraction [32]: 21
2 | 1.1e+07 | 1.7 | 8.1 | 1.8 | 236 | 129 | 6e+07 | 900000 | 0 | 1.63e+08 | 0 | 1.7e+06 | 7.7e+06 | 5e+06 | 1.8e+06 | 2.36e+08 | 1.29e+08 | 2 | 23 | 5e+07 | wheat germ agglutinin (WGA), agarose-bound (from UniProt P10968 27-197) | SEQUEST ranking (relative abundance in the WGA displacement fraction) (HAPTOGLOBIN-2 (human) [6]): 1 to 5 rank; peptide peak area in displacer fraction [20]: 8.2e+07 counts; peptide peak area in displacer fraction [21]: 1.6e+07 counts; peptide peak area in displacer fraction [22]: 1.1e+07 counts; SEQUEST rank in displacer fraction [23]: 9; SEQUEST rank in displacer fraction [24]: 2; SEQUEST rank in displacer fraction [25]: 24; SEQUEST rank in displacer fraction [26]: 28; SEQUEST rank in displacer fraction [27]: 10; SEQUEST rank in displacer fraction (CERULOPLASMIN (human)): 8; SEQUEST rank in displacer fraction [28]: 81; SEQUEST rank in displacer fraction (SERO… (human) [29]): 19; SEQUEST rank in displacer fraction [30]: 52; SEQUEST rank in displacer fraction (HAPTOGLOBIN-2 (human) [31]): 4; SEQUEST rank in displacer fraction [32]: 7

Row | Substance | peptide peak area in displacer fraction (… ZONE PROTEIN (human)) [counts] | peptide peak area in displacer fraction [1] | peptide peak area in displacer fraction (SERO… (human) [2]) | peptide peak area in displacer fraction [3] | peptide peak area in displacer fraction (HAPTOGLOBIN-2 (human) [4]) | peptide peak area in displacer fraction [5] | peptide peak area in displacer fraction [7] [counts] | peptide peak area in displacer fraction [8] [counts] | peptide peak area in displacer fraction [9] [counts] | peptide peak area in displacer fraction [10] [counts] | peptide peak area in displacer fraction [11] [counts] | peptide peak area in displacer fraction [12] [counts] | peptide peak area in displacer fraction (SERO… (human) [13]; peptide at M/Z 530.2) [counts] | peptide peak area in displacer fraction (SERO… (human) [13]; peptide at M/Z 790.1) [counts] | peptide peak area in displacer fraction [14] [counts] | peptide peak area in displacer fraction (HAPTOGLOBIN-2 (human) [15]) [counts] | peptide peak area in displacer fraction [16] [counts] | SEQUEST rank in displacer fraction [17] | SEQUEST rank in displacer fraction [18] | peptide peak area in displacer fraction [19] [counts] | other results
3 | Concanavalin A (Con A), agarose-bound (from UniProt P02866 30-281) | 6.6e+06 | 2.6 | 23 | 3.5 | 39.3 | 9.2 | 1.2e+07 | 2.6e+06 | 8.4e+06 | 4.7e+07 | 1.1e+07 | 2.6e+06 | 2e+07 | 7.8e+06 | 3.5e+06 | 3.9e+07 | 9.2e+06 | 7 | 96 | 1e+07 | SEQUEST ranking (relative abundance in the Con A displacement fraction) (HAPTOGLOBIN-2 (human) [6]): 6 to 10 rank; peptide peak area in displacer fraction [20]: 5.1e+07 counts; peptide peak area in displacer fraction [21]: 1.2e+07 counts; peptide peak area in displacer fraction [22]: 9.8e+06 counts; SEQUEST rank in displacer fraction [23]: 38; SEQUEST rank in displacer fraction [24]: 5; SEQUEST rank in displacer fraction [25]: 12; SEQUEST rank in displacer fraction [26]: 8; SEQUEST rank in displacer fraction [27]: 19; SEQUEST rank in displacer fraction (CERULOPLASMIN (human)): 14; SEQUEST rank in displacer fraction [28]: 32; SEQUEST rank in displacer fraction (SERO… (human) [29]): 2; SEQUEST rank in displacer fraction [30]: 20; SEQUEST rank in displacer fraction (HAPTOGLOBIN-2 (human) [31]): 7; SEQUEST rank in displacer fraction [32]: 33
